# Test results published in patent US20250034601A1, “HETERODIMERIC BENZALDEHYDE SYNTHASE, METHODS OF PRODUCING, AND USES THEREOF” (Purdue Research Foundation, priority 2021, published 2025).
# Substrate: CC(C)(COP(=O)(O)OP(=O)(O)OC[C@H]1O[C@@H](n2cnc3c(N)ncnc32)[C@H](O)[C@@H]1OP(=O)(O)O)[C@@H](O)C(=O)NCCC(=O)NCCSC(=O)c1ccccc1
# Test: purified protein, by the assay type
# Format: biochemical, Arabidopsis thaliana
# Conditions: other: apparent, measured at 4 mM NADPH, pH 6.5, 28° C.
# Method: The reaction was initiated by adding a protein and incubated at 28° C. for 30 minutes, and the reactions were then terminated by adding 100 μL of 100% ice-cold methanol (MeOH). The BS enzyme assays were performed at an appropriate enzyme concentration so that reaction velocity was proportional to enzyme concentration and linear during the incubation time period. Km and Vmax were determined by non-linear fit to the Michaelis-Menten equation using Graphpad Prism, v8.2.0.
# Triplicate assays were performed for all data points.
# After centrifugation at 15,000 g for 20 minutes, 5 μL of the supernatant were subjected to high-performance liquid chromatography (HPLC) analysis using an Agilent 1260 Infinity II system (Agilent Technologies, Inc., Santa Clara, CA) equipped with an InfinityLab Poroshell 120 EC-C18 column (3.0×150 mm, 2.7 μm) maintained at 35° C. Products were separated with a 15-minute linear gradient of 10% aqueous acetonitrile solution to 100% acetonitrile and monitored at 248 nm using a diode array detector (DAD). Benzaldehyde was identified by comparing the retention time and absorption spectrum with authentic standard.
# Quantitation was achieved by using standard curve generated from authentic standard and product verification was performed by GC-MS.
# Recombinant BS proteins were produced in E. coli by expressing the corresponding coding regions (CDS) subcloned into an expression vector pMAL-c5X (New England BioLabs, Ipswich, MA) containing a maltose binding protein (MBP) tag using ClonExpress II One Step Cloning Kit (Vazyme Biotech Co., Piscataway, NJ).
# After sequence verification, the desired plasmids were transformed into Rosetta2 (DE3) pLysS competent cells (MilliporeSigma, Burlington, MA). Single colonies were picked and cultured overnight in 2 ml LB medium containing 100 mg/L carbenicillin and 34 mg/L chloramphenicol at 37° C. Overnight cultures were then diluted 100-fold with LB medium and continued to culture at 37° C. until OD600 reached ˜0.5.
# After cooling the cell culture on ice for 10 minutes, isopropyl β-D-1-thiogalactopyranoside (IPTG) was added to a final concentration of 0.1 mM and cells were incubated at 28° C. with shaking for additional 2.5 to 3 hours. After harvesting cells by centrifugation, their lysis and protein purification were performed according to the manufacturer's protocol of Amylose Resin (New England Biolabs, Ipswich, MA).
protein,measurement,value
"Arabidopsis thaliana benzaldehyde synthase (AtBS), recombinant heterodimer AtBSα (SEQ ID NO: 5) / AtBSβ (SEQ ID NO: 8), wild type, MBP-tagged (Arabidopsis … (protein, full-length CDS from flower cDNA) chain 1: MSNHQTQVLKLLEPWCELKDKVVLVTGASSGIGREICLDLAKAGCQVIAAARRVDRLNSLCSEINSFSSTGIQAAALELDVSSDAATIQKAVREAWDIFGKIDALINNAGIRGNVKSSLDLSEDEWDNVFKTNLKGPWLVSKHVCMLMRDAKRGGSVINISSIAGIRGMLPGGLAYACSKGGVDTMSRMMALELGVHKIRVNSIAPGLFKSEITQGLMQKEWLKNVTERTVPLKVQQTVDPGLTSLVRYLIHDSSQYISGNTYIVDSGATLPGVPIFSSL chain 2: MENPAKRVLMTSNGDEVSRNIAFHLAKHGCKLVMMGNEGSLRSIVDKIRDSIEGAFPADVIALDMESDSEVAFHAAVQKAWELSGHFDAFLNSYTYQGKVQDILQVSQDEFHRITKINLTAPWFLLKAVATRMKDHGSGGSIVFMATIASGERALYPGADAYASTSAAIHQLVRASAMSLGKHKIRVNMISRGLHLDDEYTASVGRDRAQKLVKDAAPLGQWLNPDTDLYSTVIYLISDGSRFMTGTTVLVDGAQSLTRPRLKSYM",Km,242.8 ± 28.2 µM
same,Vmax,0.864 µmol/min/mg
same,kcat,2.12 ± 0.08 s⁻¹
same,kcat/Km,8700 ± 1100 M⁻¹ s⁻¹
